From publication PMC10513939, “Phylogenetic and functional analysis of cyanobacterial Cytochrome c 6-like proteins” (Frontiers in Plant Science, 2023)

Experiments:
[1] = molecular target: T1, Cytochrome f (soluble form, subunit of the cytochrome b 6 f complex) (Nostoc sp. PCC 7119, UniProt Q93SW9 45-298, heme group; reduced for ITC); assay: ITC
T1 chain: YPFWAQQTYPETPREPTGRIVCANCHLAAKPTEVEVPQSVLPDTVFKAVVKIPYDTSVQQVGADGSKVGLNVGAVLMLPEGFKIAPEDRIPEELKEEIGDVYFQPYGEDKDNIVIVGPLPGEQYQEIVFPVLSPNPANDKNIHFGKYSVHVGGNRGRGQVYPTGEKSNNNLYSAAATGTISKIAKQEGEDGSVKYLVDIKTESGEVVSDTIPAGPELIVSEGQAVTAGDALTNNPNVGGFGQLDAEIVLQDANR

[2] = molecular target: T1, Cytochrome f (soluble form, subunit of …); assay: ITC
[3] = molecular target: T2, Cytochrome f (soluble form, subunit of the cytochrome b 6 f complex) (Nostoc sp. PCC 7119, UniProt Q93SW9 45-298, heme group; reduced for ITC); assay: ITC; oxidised Cyt c 6, c 6BC or c 6D (400 uM) injected (2 uL injections) into reduced Cyt f (40 uM) in the cell; 5 mM phosphate buffer pH 7.5, 0.02% (w/v) Triton X-100, 25 °C; single binding site model; details: both partners purified
T2 construct: Cytochrome f, subunit of the cytochrome b6f complex, soluble form heterologously expressed; construct as described in earlier work (Albarran et al., 2005); PCC 7120; Soluble form: as far as I recall, the lumenal domain without the C-terminal membrane anchor and without the signal peptide; also called Cyt f; soluble Cyt f; source: E. coli co-transformed with pEC86, extracted from the periplasmic …
T2 sequence (looked up): T1 chain

[4] = molecular target: Cytochrome f (soluble form, subunit of the cytochrome b 6 f complex) (Nostoc sp. PCC 7119) (UniProt Q93SW9); assay: as above

B1: Cytochrome c 6 (natural protein, Nostoc sp. PCC 7119, UniProt P0A3X8 26-111, looked up)
chain: ADSVNGAKIFSANCASCHAGGKNLVQAQKTLKKADLEKYGMYSAEAIIAQVTNGKNAMPAFKGRLKPEQIEDVAAYVLGKADADWK
modifications: heme group; oxidised for ITC
notes: Cytochrome c6 (petJ) of Nostoc sp; PCC 7119; also called Cyt c 6; source: E. coli co-transformed with pEC86, extracted from the periplasmic fraction, purified (ion exchange chromatography)
Kd [1]: 13 µM
Ka [2]: 78000 M⁻¹
stoichiometry N [3]: 1

B2: Cytochrome c 6BC (natural protein)
chain: ENTINGEQIFSVHCAGCHINGSNIIRRGKNLQKKTLKKYGMDSLEAIEAIVTNGKNNMSAYKDRLSEQEIQDVAAYVLEQAEKGWR
modifications: heme group; oxidised for ITC
Kd [1]: 11 µM
Ka [2]: 89000 M⁻¹
stoichiometry N [4]: 1

B3: Cytochrome c 6D (natural protein)
chain: AELPTGAKIFNNNCASCHIGGGNILISEKTLKKEALLKYLEDYETNSIQAIIHQIQYGKNAMPAFKDKLSTEEILEVAAYIFQKAEKDWSNLEKEG
modifications: heme group; oxidised for ITC
Kd [1]: 2 µM
Ka [2]: 500000 M⁻¹
fold higher KA and fold lower KD than for Cyt c 6 and Cyt c 6BC with Cyt f [4]: 6 fold
stoichiometry N [4]: 1
